Laboratory results taken from paper PMC3428624.

Target: histone H3 K115C (UniProt P84233)
Assay: cross-linking

histone H3 K115C (from UniProt P84233 2-136) (natural protein)
efficiency of crosslinking at H3 K115C (H3-H3’): 80%
